Test results reported in publication doi:10.1101/2025.08.13.670122.
Read-outs that look alike come from different tables or passages of the source.

Experiments:
[1] = biological target: human Angiotensin II Type 1 receptor (human) (UniProt P30556)
[2] = biological target: human Angiotensin II Type 1 receptor (human) (UniProt P30556); remark: listed apart in the source
[3] = biological target: human Angiotensin II Type 1 receptor (human) (UniProt P30556); remark: listed apart in the source
[4] = biological target: human Angiotensin II Type 1 receptor (human) (UniProt P30556); remark: listed apart in the source
[5] = biological target: human Angiotensin II Type 1 receptor (human) (UniProt P30556); remark: listed apart in the source
[6] = biological target: human Angiotensin II Type 1 receptor (human) (UniProt P30556); remark: listed apart in the source
[7] = biological target: human Angiotensin II Type 1 receptor (human) (UniProt P30556); test: radioligand binding

Sequence of human Angiotensin II Type 1 receptor (human) (P30556 whole entry): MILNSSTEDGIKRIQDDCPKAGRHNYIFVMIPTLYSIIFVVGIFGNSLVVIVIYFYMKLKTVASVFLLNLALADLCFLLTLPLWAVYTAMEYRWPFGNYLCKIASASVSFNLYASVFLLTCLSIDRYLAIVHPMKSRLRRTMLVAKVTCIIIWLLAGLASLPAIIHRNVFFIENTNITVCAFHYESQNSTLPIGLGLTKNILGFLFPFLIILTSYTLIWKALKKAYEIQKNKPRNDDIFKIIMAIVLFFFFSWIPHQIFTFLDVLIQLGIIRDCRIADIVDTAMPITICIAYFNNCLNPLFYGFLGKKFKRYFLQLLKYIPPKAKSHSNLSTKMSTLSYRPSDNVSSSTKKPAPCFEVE

Substance: AngII analog 11 (Tyr(Me) at position 8) (from UniProt P01019)
- Ki [1]: 0.23 nM

Substance: AngII analog 11 (Tyr(Me) at position 8) (peptide)
- Gαq activation (GABY BRET sensor, HEK293 cells expressing AT1R), EC50 [2]: 1.1 nM
- β-arrestin2 recruitment (BRET, HEK293 cells expressing AT1R), EC50 [2]: 0.36 nM

Substance: AngII analog 12 (Tyr(Bzl) at position 8) (peptide)
- Gαq activation (GABY BRET sensor, HEK293 cells expressing AT1R), EC50 [2]: > 10000 nM
- β-arrestin2 recruitment (BRET, HEK293 cells expressing AT1R), EC50 [2]: 2.5 nM

Substance: AngII analog 13 (Bip at position 8) (peptide)
- β-arrestin2 recruitment (BRET, HEK293 cells expressing AT1R), EC50 [2]: 15 nM

Substance: AngII analog 14 (p-tBuPhe at position 8) (peptide)
- β-arrestin2 recruitment (BRET, HEK293 cells expressing AT1R), EC50 [2]: 26 nM

Substance: AngII analog 15 (Dip at position 8) (peptide)
- Gαq activation (GABY BRET sensor, HEK293 cells expressing AT1R), EC50 [2]: 7.9 nM

Substance: AngII analog 16 (Ser(Bzl) at position 8) (peptide)
- Gαq activation (GABY BRET sensor, HEK293 cells expressing AT1R), EC50 [2]: > 10000 nM

Substance: AngII analog 20 (4ThzAla at position 8) (peptide)
- Gαq activation (GABY BRET sensor, HEK293 cells expressing AT1R), EC50 [3]: 14 nM

Substance: AngII analog 22b ((m-NO2)Phe at position 8) (peptide)
- Gαq activation (GABY BRET sensor, HEK293 cells expressing AT1R), EC50 [4]: 4.4 nM

Substance: AngII analog 23a ((o-CN)Phe at position 8) (peptide)
- Gαq activation (GABY BRET sensor, HEK293 cells expressing AT1R), EC50 [5]: > 10000 nM
- β-arrestin2 recruitment (BRET, HEK293 cells expressing AT1R), EC50 [5]: < 2.5 nM

Substance: AngII analog 23b ((m-CN)Phe at position 8) (peptide)
- Gαq activation (GABY BRET sensor, HEK293 cells expressing AT1R), EC50 [4]: 5.9 nM

Substance: AngII analog 24a ((o-OH)Phe at position 8) (peptide)
- Gαq activation (GABY BRET sensor, HEK293 cells expressing AT1R), EC50 [6]: 2.1 nM

Substance: AngII analog 24b ((m-OH)Phe at position 8) (peptide)
- Gαq activation (GABY BRET sensor, HEK293 cells expressing AT1R), EC50 [4]: 4.6 nM

Substance: AngII analog 27b ((m-I)Phe at position 8) (peptide)
- Gαq activation (GABY BRET sensor, HEK293 cells expressing AT1R), EC50 [4]: 4.5 nM

Substance: AngII analog 28b ((m-Br)Phe at position 8) (peptide)
- Gαq activation (GABY BRET sensor, HEK293 cells expressing AT1R), EC50 [4]: 1.9 nM

Substance: AngII analog 29b ((m-Cl)Phe at position 8) (peptide)
- Gαq activation (GABY BRET sensor, HEK293 cells expressing AT1R), EC50 [4]: 1.5 nM

Substance: AngII analog 29c ((p-Cl)Phe at position 8) (peptide)
- Gαq activation (GABY BRET sensor, HEK293 cells expressing AT1R), EC50 [4]: 2.5 nM

Substance: AngII analog 30a ((o-F)Phe at position 8) (peptide)
- Gαq activation (GABY BRET sensor, HEK293 cells expressing AT1R), EC50 [6]: 1 nM

Substance: AngII analog 30b ((m-F)Phe at position 8) (peptide)
- Gαq activation (GABY BRET sensor, HEK293 cells expressing AT1R), EC50 [4]: 2.4 nM

Substance: AngII analog 30c ((p-F)Phe at position 8) (peptide)
- Gαq activation (GABY BRET sensor, HEK293 cells expressing AT1R), EC50 [4]: 1.7 nM

Substance: TRV027 (peptide)
- Ki [7]: 6.6 nM
